The text below walks through data of publication PMC1331984.

By Kd is commonly meant the constant that tells how readily two partners part at equilibrium. Low readings indicate higher affinity, high ones lower affinity.

In series [1] the target is T1, TraI36 (F TraI relaxase domain) (Escherichia coli F plasmid (F factor), UniProt P14565 1-330).
T1 sequence: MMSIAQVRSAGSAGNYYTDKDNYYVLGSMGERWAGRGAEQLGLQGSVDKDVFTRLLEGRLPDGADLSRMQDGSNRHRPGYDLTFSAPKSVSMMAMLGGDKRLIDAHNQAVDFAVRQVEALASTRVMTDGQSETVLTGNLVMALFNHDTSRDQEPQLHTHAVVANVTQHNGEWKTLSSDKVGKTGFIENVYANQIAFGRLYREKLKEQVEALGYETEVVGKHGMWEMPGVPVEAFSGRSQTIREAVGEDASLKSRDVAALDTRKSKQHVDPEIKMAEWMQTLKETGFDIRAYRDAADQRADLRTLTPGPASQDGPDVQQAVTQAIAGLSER
In words: competition.

The target of series [2] is T1, TraI36 (F TraI relaxase domain). In words: fluorescence anisotropy and intensity. (Fluorescence polarisation rises when a labelled molecule tumbles more slowly, as on binding a larger partner.)
Series [3] shares this target. Description: fluorescence dissociation kinetics.
Series [4] shares this target. In words: fluorescence anisotropy and intensity. The source holds these as a separate data set.

Like-named read-outs stand apart in the source and are kept apart here.

As for TTTGCGTGGGCTGTGGT (ssDNA) [G144'C 17mer], in series [1], the binding result is “no binding”.
With TTTCGGTGGGGTGTGGT (ssDNA) [G151'C/C150'G 17mer], in series [2], the Kd is 390 ± 9 nM.
On the same count and under the same terms, to CGTTTTTGTTGTTTTTGCGTGGGGTGTGGT (ssDNA) [No Hairpin] belongs 16 ± 1 nM; to CGAAAAACTTGTTTTTCGGTGGGGTGTGGT (structured_DNA) [G167'C/C166'G/G151'C/C150'G Hairpin], 78 ± 2 nM.
Consider GCAAAAACTTGTTTTTCGGTGGGGTGTGGT (structured_DNA) [G151'C/C150'G Hairpin], for which the binding result in series [3] is listed as “binds”.
In series [4], CGAAAAACTTGTTTTTGCGTGGGGTGTGGT (structured_DNA) [G167'C/C166'G Hairpin] displayed a Kd of 12 ± 1.8 nM.
Molecule GCAAAAACTTGTTTTTGCGTGGGGTGTGGT (structured_DNA) [WT Hairpin] registered a Kd in series [4] of 6.8 ± 1.2 nM.
Regarding TTTGCGTGGGGTGTGGT (ssDNA) [WT 17mer], the affinity in series [2], expressed as Kd, was 39 ± 0.8 nM.
